From patent US20210214461A1
Positions count from the first letter of the chain named. One block for each binder: values may come before it.

Legend:
[1] = biological target: pre-existing anti-scFv903 antibodies in human serum H8 (human); test: competition ADA bridging ELISA, 100 mcg/ml competitor
[2] = biological target: pre-existing anti-scFv903 antibodies in human serum H105 (human); test: as above
[3] = biological target: pre-existing anti-scFv903 antibodies in human serum H50 (human); test: as above
[4] = biological target: pre-existing anti-scFv903 antibodies in human serum H53 (human); test: as above
[5] = biological target: pre-existing anti-scFv903 antibodies in human serum H69 (human); test: as above
[6] = biological target: pre-existing anti-scFv903 antibodies in human serum H40 (human); test: as above
[7] = biological target: pre-existing anti-scFv903 antibodies in human serum H60 (human); test: as above
[8] = biological target: pre-existing anti-scFv903 antibodies in human serum H49 (human); test: as above
[9] = biological target: pre-existing anti-scFv903 antibodies in human serum H19 (human); test: as above
[10] = biological target: pre-existing anti-scFv903 antibodies in human serum H66 (human); test: as above
[11] = biological target: pre-existing anti-scFv903 antibodies in human serum H15 (human); test: as above
[12] = biological target: pre-existing anti-scFv903 antibodies in human serum H56 (human); test: as above
[13] = biological target: pre-existing anti-scFv903 antibodies in human serum H55 (human); test: as above
[14] = biological target: pre-existing anti-scFv903 antibodies in human serum H76 (human); test: as above
[15] = biological target: pre-existing anti-scFv903 antibodies in human serum H20 (human); test: as above
[16] = biological target: pre-existing anti-scFv903 antibodies in human serum H26 (human); test: as above
[17] = biological target: pre-existing anti-scFv903 antibodies in human serum H54 (human); test: as above
[18] = biological target: pre-existing anti-scFv903 antibodies in human serum H125 (human); test: as above
[19] = biological target: pre-existing anti-scFv903 antibodies in human serum H29 (human); test: as above
[20] = biological target: pre-existing anti-scFv903 antibodies in human serum H21 (human); test: as above
[21] = biological target: pre-existing anti-scFv903 antibodies in human serum H81 (human); test: as above
[22] = biological target: pre-existing anti-scFv903 antibodies in human serum H64 (human); test: as above
[23] = biological target: pre-existing anti-scFv903 antibodies in human serum H3 (human); test: as above
[24] = biological target: pre-existing anti-scFv903 antibodies in human serum H80 (human); test: as above
[25] = biological target: pre-existing anti-scFv903 antibodies in human serum H14 (human); test: as above
[26] = biological target: pre-existing anti-scFv903 antibodies in human serum H63 (human); test: as above
[27] = biological target: pre-existing anti-scFv903 antibodies in human serum H135 (human); test: as above
[28] = biological target: pre-existing anti-scFv903 antibodies in human serum H46 (human); test: as above
[29] = biological target: pre-existing anti-scFv903 antibodies in human serum H116 (human); test: as above
[30] = biological target: pre-existing anti-scFv903 antibodies in human serum H115 (human); test: as above
[31] = biological target: pre-existing anti-scFv903 antibodies in human serum H59 (human); test: as above
[32] = biological target: pre-existing anti-scFv903 antibodies in human serum H96 (human); test: as above
[33] = biological target: pre-existing anti-scFv903 antibodies in human serum H79 (human); test: as above
[34] = biological target: pre-existing anti-scFv903 antibodies in human serum H69 (human); test: competition ADA bridging ELISA
[35] = biological target: pre-existing anti-scFv903 antibodies in human serum H66 (human); test: competition ADA bridging ELISA
[36] = biological target: pre-existing anti-scFv903 antibodies in human serum H55 (human); test: competition ADA bridging ELISA
[37] = biological target: pre-existing anti-scFv903 antibodies in human serum H21 (human); test: competition ADA bridging ELISA
[38] = biological target: pre-existing anti-scFv903 antibodies in human serum H3 (human); test: competition ADA bridging ELISA
[39] = biological target: pre-existing anti-scFv903 antibodies in human serum H14 (human); test: competition ADA bridging ELISA
[40] = biological target: pre-existing anti-scFv903 antibodies in human serum H46 (human); test: competition ADA bridging ELISA
[41] = biological target: pre-existing anti-scFv903 antibodies in human serum H79 (human); test: competition ADA bridging ELISA
[42] = biological target: pre-existing anti-scFv903 antibodies in human serum H86 (human); test: competition ADA bridging ELISA, 100 mcg/ml competitor

- % reduction in OD [1]: -23.1%
- % reduction in OD [2]: 2.4%
- % reduction in OD [3]: -31.1%
- % reduction in OD [4]: -18.4%
- % reduction in OD [5]: -87.6%
- % reduction in OD [6]: 3.5%
- % reduction in OD [7]: -10.8%
- % reduction in OD [8]: -26.1%
- % reduction in OD [9]: -73.5%
- % reduction in OD [10]: -2.6%
- % reduction in OD [11]: -69.5%
- % reduction in OD [12]: -4.8%
- % reduction in OD [13]: -71.9%
- % reduction in OD [14]: -65.7%
- % reduction in OD [15]: -18.8%
- % reduction in OD [16]: -79.9%
- % reduction in OD [17]: -61.3%
- % reduction in OD [18]: -55.5%
- % reduction in OD [19]: -51.4%
- % reduction in OD [20]: -3.4%
- % reduction in OD [21]: -18.1%
- % reduction in OD [22]: -55.5%
- % reduction in OD [23]: -58.8%
- % reduction in OD [24]: -50.9%
- % reduction in OD [25]: -3.6%
- % reduction in OD [26]: -80.5%
- % reduction in OD [27]: -23.1%
- % reduction in OD [28]: -66.7%
- % reduction in OD [29]: -43.4%
- % reduction in OD [30]: -60.4%
- % reduction in OD [31]: -93.7%
- % reduction in OD [32]: -29%
- % reduction in OD [33]: -40.5%
- signal change in competition ELISA (% reduction in OD) [34]: -88%
- signal change in competition ELISA (% reduction in OD) [35]: -3%
- signal change in competition ELISA (% reduction in OD) [36]: -72%
- signal change in competition ELISA (% reduction in OD) [37]: -3%
- signal change in competition ELISA (% reduction in OD) [38]: -59%
- signal change in competition ELISA (% reduction in OD) [39]: -4%
- signal change in competition ELISA (% reduction in OD) [40]: -67%
- signal change in competition ELISA (% reduction in OD) [41]: -41%
B1: scFv105 (scFv)
scFv: DIVMTQSPSSLSASVGDRVTLTCTASQSVSNDVVWYQQRPGKAPKLLIYSAFNRYTGVPSRFSGRGYGTDFTLTISSLQPEDVAVYYCQQDYNSPRTFGQGTKLEVKRGGGGSGGGGSGGGGSSGGGSQVQLVQSGAEVKKPGASVKVSCTASGYTFTHYGMNWVRQAPGKGLEWMGWINTYTGEPTYADKFKDRFTFSLETSASTVYMELTSLTSDDTAVYYCARERGDAMDYWGQGTLVTVSS

- % reduction in OD [1]: -87.3%
- % reduction in OD [2]: -97.2%
- signal change in competition ELISA (% change in OD) [3]: -88.7%
- signal change in competition ELISA (%) [4]: -32.4%
- signal change in competition ELISA (% change in OD) [5]: -92.2%
- % signal change in OD (negative = reduction) [6]: -95.4%
- signal change in competition ELISA [7]: -95.6%
- % change in OD in competition ELISA [8]: -82.7%
- signal change in competition ELISA (% change in OD) [9]: -90.3%
- % change in OD [10]: -97.2%
- % change in OD (signal change in competition ELISA) [11]: -91.1%
- % change in OD [12]: -24.4%
- % signal change in OD (negative = reduction) [13]: -89.4%
- % reduction in OD [14]: -97%
- signal change in competition ELISA [15]: -91.9%
- % change in OD (signal change) [16]: -92%
- signal change in OD (%) [17]: -93.1%
- % reduction in OD [18]: -97.9%
- % reduction in OD [42]: -86.2%
- % change in OD signal [19]: -79.4%
- % signal change in competition ELISA [20]: -85.4%
- % reduction in OD [21]: -94.7%
- % reduction in OD [23]: -79.9%
- % reduction in OD [24]: -87%
- % change in OD signal [25]: -96.6%
- % change in OD (signal change in competition ELISA) [26]: -96.8%
- % reduction in OD [27]: -92.5%
- % change in OD signal [28]: -79.8%
- % reduction in OD [29]: -97.8%
- % reduction in OD [30]: -94.7%
- signal change in competition ELISA (% change in OD) [31]: -97%
- % reduction in OD [32]: -80.3%
- % reduction in OD [33]: -97.1%
- signal change in competition ELISA (% reduction in OD) [34]: -92%
- signal change in competition ELISA (% reduction in OD) [35]: -97%
- signal change in competition ELISA (% reduction in OD) [36]: -89%
- signal change in competition ELISA (% reduction in OD) [37]: -85%
- signal change in competition ELISA (% reduction in OD) [38]: -80%
- signal change in competition ELISA (% reduction in OD) [39]: -97%
- signal change in competition ELISA (% reduction in OD) [40]: -80%
- signal change in competition ELISA (% reduction in OD) [41]: -97%
B2: scFv 903 (scFv)
scFv: EIVMTQSPSTLSASVGDRVIITCQASEIIHSWLAWYQQKPGKAPKLLIYLASTLASGVPSRFSGSGSGAEFTLTISSLQPDDFATYYCQNVYLASTNGANFGQGTKLTVLGGGGGSGGGGSGGGGSGGGGSEVQLVESGGGLVQPGGSLRLSCTASGFSLTDYYYMTWVRQAPGKGLEWVGFIDPDDDPYYATWAKGRFTISRDTSKNTVYLQMNSLRAEDTAVYYCAGGDHNSGWGLDIWGQGTLVTVSS

- % reduction in OD [1]: -88.6%
- % reduction in OD [2]: 7.4%
- % reduction in OD [3]: -72.8%
- % reduction in OD [4]: -30.9%
- % reduction in OD [5]: -6.2%
- % reduction in OD [6]: -1.7%
- % reduction in OD [7]: -1.2%
- % reduction in OD [8]: -8.8%
- % reduction in OD [9]: -63.7%
- % reduction in OD [12]: -23.8%
- % reduction in OD [13]: -14.7%
- % reduction in OD [14]: -36.4%
- % reduction in OD [15]: -23.5%
- % reduction in OD [16]: 0.1%
- % reduction in OD [17]: -69.4%
- % reduction in OD [18]: 2.7%
- % reduction in OD [42]: -67.9%
- % reduction in OD [19]: -21.9%
- % reduction in OD [20]: -80.5%
- % reduction in OD [21]: -8.8%
- % reduction in OD [22]: -13.7%
- % reduction in OD [23]: -1.7%
- % reduction in OD [24]: -55.1%
- % reduction in OD [26]: -35.9%
- % reduction in OD [27]: -74.7%
- % reduction in OD [28]: -40.1%
- % reduction in OD [29]: -33.2%
- % reduction in OD [30]: -31.4%
- % reduction in OD [31]: -67.3%
- % reduction in OD [32]: -78%
- % reduction in OD [33]: -74.1%
- signal change in competition ELISA (% reduction in OD) [34]: -6%
- signal change in competition ELISA (% reduction in OD) [36]: -15%
- signal change in competition ELISA (% reduction in OD) [37]: -81%
- signal change in competition ELISA (% reduction in OD) [38]: -2%
- signal change in competition ELISA (% reduction in OD) [40]: -40%
- signal change in competition ELISA (% reduction in OD) [41]: -74%
B3: scFv 961 (scFv)
scFv: B2 scFv with L142S, V224T, L246T
